Laboratory results: the supplement of paper PMC10065799, “High-throughput profiling of sequence recognition by tyrosine kinases and SH2 domains using bacterial peptide display” (eLife, 2023)

Legend:
c-Src SH2 = assay: SH2 binding enrichment of the phosphorylated peptide, bacterial display (enrichment ratio); higher = better substrate or ligand; peptides without Tyr show the background
SHP2-C SH2 = assay: as above
Grb2 SH2 = Grb2 SH2 (UniProt P62993); assay: as above
Jak2 = Jak2 (UniProt O60674); assay: phosphorylation enrichment, bacterial display (enrichment ratio); higher = better substrate or ligand; peptides without Tyr show the background
c-Abl (mouse) = assay: as above
AncSZ = assay: as above
FGFR3 = FGFR3 (UniProt P22607); assay: as above
Fyn = Fyn (UniProt P06241); assay: as above
FGFR1 = FGFR1 (UniProt P11362); assay: as above
Fes = Fes (UniProt P07332); assay: as above
EPHB2 = EPHB2 (UniProt P29323); assay: as above
Fer (mouse) = assay: as above
MERTK = MERTK (UniProt Q12866); assay: as above
Hck = Hck (UniProt P08631); assay: as above
EPHB1 = EPHB1 (UniProt P54762); assay: as above
c-Src = assay: as above
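For SH2 binding enrichment of the phosphorylated peptide, bacterial display in this document: peptide library displayed on the E. coli surface as eCPX fusions, selected cells deep-sequenced, score is each peptide's frequency after selection divided by its frequency in the input.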
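For phosphorylation enrichment, bacterial display in this document: 11-residue human phosphosite peptides and single-mutation variants displayed on the E. coli surface, counted by deep sequencing, each peptide's frequency after selection divided by its frequency in the unselected input library; frequency after pTyr selection over input frequency; kinase dosed for 20-30% of maximal phosphorylation in three min.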

Chain of EPHB2 (P29323 whole entry, looked up): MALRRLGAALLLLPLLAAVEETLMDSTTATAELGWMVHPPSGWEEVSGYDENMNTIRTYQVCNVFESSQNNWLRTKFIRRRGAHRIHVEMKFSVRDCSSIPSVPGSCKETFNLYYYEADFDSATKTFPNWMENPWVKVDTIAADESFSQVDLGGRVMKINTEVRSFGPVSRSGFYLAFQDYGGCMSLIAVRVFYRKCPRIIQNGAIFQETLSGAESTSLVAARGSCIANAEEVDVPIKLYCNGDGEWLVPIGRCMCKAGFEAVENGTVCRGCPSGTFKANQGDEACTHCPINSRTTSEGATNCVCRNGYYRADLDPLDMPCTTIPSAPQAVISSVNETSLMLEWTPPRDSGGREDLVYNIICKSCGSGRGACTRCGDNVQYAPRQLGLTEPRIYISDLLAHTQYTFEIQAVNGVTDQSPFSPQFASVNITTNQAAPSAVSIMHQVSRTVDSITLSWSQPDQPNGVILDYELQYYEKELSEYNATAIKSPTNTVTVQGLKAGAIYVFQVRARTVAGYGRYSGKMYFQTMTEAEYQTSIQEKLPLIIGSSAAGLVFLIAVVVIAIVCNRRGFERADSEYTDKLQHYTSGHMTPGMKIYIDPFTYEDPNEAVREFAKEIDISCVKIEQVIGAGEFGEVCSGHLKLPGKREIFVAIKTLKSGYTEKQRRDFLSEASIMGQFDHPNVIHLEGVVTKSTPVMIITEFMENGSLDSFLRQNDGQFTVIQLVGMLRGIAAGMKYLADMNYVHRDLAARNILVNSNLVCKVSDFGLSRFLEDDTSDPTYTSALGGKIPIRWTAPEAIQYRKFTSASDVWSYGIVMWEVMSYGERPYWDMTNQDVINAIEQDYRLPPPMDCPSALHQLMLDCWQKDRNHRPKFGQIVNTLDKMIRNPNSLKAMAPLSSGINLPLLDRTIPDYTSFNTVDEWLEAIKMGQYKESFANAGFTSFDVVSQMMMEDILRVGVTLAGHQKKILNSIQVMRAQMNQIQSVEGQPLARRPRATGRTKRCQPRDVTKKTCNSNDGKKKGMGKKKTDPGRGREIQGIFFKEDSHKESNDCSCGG
Chain of FGFR1 (P11362 whole entry, looked up): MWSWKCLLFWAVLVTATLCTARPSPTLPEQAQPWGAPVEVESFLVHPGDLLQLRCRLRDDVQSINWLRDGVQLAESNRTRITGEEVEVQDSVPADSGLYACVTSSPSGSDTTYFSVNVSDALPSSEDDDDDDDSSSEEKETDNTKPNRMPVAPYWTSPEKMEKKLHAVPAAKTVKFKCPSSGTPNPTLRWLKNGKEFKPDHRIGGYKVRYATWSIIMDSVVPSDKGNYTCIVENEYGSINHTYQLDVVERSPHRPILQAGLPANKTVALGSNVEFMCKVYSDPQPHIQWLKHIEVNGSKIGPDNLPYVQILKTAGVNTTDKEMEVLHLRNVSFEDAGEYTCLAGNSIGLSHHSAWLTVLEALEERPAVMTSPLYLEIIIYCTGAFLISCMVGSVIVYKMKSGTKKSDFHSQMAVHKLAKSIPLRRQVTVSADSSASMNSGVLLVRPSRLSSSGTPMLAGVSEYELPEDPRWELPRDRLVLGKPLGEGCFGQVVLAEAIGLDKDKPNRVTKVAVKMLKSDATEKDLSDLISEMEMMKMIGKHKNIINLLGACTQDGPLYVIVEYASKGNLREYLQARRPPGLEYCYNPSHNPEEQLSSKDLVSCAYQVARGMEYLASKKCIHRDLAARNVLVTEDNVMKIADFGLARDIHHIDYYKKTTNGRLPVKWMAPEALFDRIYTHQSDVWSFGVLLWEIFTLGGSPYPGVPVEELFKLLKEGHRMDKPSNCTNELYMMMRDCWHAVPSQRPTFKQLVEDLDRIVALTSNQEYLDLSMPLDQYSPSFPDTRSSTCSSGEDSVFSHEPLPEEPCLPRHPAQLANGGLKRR
Chain of Fyn (P06241 whole entry, looked up): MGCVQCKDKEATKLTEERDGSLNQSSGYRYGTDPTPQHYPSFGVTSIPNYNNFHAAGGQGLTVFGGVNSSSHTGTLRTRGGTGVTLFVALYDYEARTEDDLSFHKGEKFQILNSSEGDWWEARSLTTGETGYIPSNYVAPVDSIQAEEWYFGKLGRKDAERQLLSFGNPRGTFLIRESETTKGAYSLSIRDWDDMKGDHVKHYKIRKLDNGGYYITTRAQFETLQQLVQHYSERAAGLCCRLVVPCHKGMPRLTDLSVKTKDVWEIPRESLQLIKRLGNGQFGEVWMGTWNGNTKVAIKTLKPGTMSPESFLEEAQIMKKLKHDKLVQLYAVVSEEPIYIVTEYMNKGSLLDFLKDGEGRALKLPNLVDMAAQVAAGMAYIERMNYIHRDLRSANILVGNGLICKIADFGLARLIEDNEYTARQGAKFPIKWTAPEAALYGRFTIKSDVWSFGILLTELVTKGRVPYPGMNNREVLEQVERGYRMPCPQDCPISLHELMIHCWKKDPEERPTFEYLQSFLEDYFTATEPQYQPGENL
Chain of Jak2 (O60674 whole entry, looked up): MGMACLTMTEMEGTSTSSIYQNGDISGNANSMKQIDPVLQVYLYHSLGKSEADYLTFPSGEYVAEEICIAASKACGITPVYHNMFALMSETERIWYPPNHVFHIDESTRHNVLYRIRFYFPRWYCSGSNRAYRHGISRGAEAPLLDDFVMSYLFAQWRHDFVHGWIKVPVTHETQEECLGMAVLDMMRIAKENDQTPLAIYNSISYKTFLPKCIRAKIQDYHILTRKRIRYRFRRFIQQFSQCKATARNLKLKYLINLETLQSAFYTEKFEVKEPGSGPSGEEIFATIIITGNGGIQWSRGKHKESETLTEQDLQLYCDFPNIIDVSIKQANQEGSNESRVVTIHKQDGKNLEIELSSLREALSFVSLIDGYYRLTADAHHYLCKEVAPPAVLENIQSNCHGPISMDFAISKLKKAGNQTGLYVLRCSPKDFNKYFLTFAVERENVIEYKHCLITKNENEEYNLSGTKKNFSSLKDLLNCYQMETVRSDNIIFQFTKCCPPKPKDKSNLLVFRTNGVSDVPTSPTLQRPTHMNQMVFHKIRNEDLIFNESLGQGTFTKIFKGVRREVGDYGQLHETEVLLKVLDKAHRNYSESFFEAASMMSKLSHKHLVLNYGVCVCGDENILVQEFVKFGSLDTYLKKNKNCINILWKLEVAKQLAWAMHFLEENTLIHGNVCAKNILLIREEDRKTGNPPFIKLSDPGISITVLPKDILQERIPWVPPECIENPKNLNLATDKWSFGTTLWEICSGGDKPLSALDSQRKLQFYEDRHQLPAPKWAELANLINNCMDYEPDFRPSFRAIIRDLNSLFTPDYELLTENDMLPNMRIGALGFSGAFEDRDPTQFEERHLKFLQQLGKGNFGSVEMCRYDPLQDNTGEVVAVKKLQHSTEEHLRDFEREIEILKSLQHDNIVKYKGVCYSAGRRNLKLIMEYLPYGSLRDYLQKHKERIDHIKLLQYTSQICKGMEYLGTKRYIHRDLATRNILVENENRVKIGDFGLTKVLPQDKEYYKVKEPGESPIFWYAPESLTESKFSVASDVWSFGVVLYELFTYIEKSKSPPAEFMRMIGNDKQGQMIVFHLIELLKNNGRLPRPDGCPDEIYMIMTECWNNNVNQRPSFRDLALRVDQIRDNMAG
Chain of Fes (P07332 whole entry, looked up): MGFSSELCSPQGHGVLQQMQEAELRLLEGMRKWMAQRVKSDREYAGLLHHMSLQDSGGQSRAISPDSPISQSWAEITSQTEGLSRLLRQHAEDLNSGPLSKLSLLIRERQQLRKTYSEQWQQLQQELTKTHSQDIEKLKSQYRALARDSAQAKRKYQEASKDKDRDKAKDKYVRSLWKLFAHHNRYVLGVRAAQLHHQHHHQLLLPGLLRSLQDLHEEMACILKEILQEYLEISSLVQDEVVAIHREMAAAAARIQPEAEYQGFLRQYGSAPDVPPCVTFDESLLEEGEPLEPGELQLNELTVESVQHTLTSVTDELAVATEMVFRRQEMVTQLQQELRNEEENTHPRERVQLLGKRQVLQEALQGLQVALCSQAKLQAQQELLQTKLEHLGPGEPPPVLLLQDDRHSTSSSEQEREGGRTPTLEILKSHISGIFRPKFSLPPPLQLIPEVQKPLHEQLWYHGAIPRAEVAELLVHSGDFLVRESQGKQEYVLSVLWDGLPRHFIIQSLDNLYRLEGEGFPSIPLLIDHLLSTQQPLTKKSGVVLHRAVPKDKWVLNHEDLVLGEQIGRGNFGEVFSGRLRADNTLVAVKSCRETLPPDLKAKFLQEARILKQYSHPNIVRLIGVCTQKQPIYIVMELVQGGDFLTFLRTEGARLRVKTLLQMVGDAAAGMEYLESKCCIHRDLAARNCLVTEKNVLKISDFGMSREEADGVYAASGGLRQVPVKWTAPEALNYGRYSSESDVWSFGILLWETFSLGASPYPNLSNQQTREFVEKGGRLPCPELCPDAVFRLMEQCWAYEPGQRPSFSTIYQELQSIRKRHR
Chain of Hck (P08631 whole entry, looked up): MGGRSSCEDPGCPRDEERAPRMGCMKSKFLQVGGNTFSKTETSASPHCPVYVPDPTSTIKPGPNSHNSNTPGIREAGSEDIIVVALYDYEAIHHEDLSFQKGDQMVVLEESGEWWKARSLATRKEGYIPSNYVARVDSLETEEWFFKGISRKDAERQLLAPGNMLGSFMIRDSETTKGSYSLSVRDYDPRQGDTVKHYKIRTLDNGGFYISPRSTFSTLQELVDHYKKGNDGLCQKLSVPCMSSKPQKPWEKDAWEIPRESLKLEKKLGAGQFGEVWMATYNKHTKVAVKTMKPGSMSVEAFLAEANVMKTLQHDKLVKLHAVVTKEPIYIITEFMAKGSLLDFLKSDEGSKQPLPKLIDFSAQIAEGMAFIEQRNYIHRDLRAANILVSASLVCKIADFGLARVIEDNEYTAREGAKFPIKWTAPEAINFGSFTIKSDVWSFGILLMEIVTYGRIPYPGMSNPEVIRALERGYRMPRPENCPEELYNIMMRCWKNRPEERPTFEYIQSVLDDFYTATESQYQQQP

Row | Sequence | SH2 binding enrichment (c-Src SH2) | SH2 binding enrichment (SHP2-C SH2) | SH2 binding enrichment (Grb2 SH2) | phosphorylation enrichment (Jak2) | phosphorylation enrichment (c-Abl (mouse)) | phosphorylation enrichment (AncSZ) | phosphorylation enrichment (FGFR3) | phosphorylation enrichment (Fyn) | phosphorylation enrichment (FGFR1) | phosphorylation enrichment (Fes) | phosphorylation enrichment (EPHB2) | phosphorylation enrichment (Fer (mouse)) | phosphorylation enrichment (MERTK) | phosphorylation enrichment (Hck) | phosphorylation enrichment (EPHB1) | phosphorylation enrichment (c-Src)
1 | LMVFEYMRHGN [NTRK1_Y591_D596N] | 1.19 | 1.89 | 1.65 | 1.54 | 0.912 | 0.998 | 0.707 | 0.664 | 0.55 | 1.44 | 0.692 | 0.466 | 0.457 | 0.597 | 0.797 | 0.539
2 | LNPLVYTLRNA [OR4C12_Y285_V283L] | 1.02 | 0.893 | 1.22 | 1.1 | 1.19 | 1.05 | 1.04 | 2.22 | 1.01 | 1.51 | 1.28 | 0.76 | 1.21 | 1.81 | 0.712 | 3.54
3 | LNTFHYAGVSA [POLR2A_Y1109] | 1.32 | 1.64 | 0.9 | 0.584 | 0.552 | 0.656 | 0.56 | 0.419 | 0.407 | 0.722 | 0.415 | 0.469 | 0.449 | 0.45 | 0.434 | 0.464
4 | LNWIYYKDQTG [RS1_Y166] | 1.18 | 1.07 | 1.38 | 2.21 | 1.13 | 2.25 | 2 | 1.32 | 1.4 | 2.51 | 1.35 | 0.888 | 0.787 | 1.35 | 1.58 | 1.06
5 | LNYNEYFRDLN [HPRT1_Y198_D194N] | 0.443 | 0.672 | 0.985 | 1.57 | 1.01 | 1.82 | 1.38 | 0.996 | 1.29 | 1.6 | 1.12 | 0.878 | 0.559 | 0.879 | 1.4 | 0.518
6 | LQEKSYIKGTS [LCTL_Y331] | 0.546 | 1.1 | 1.41 | 0.595 | 0.723 | 1.33 | 1.08 | 0.616 | 1.15 | 1.21 | 1.02 | 0.96 | 0.609 | 0.912 | 0.652 | 0.9
7 | LQLLGHRPVYS [CHST6_Y358_Y358H] | 0.733 | 0.935 | 1.22 | 0.552 | 0.418 | 0.615 | 0.506 | 0.535 | 0.425 | 0.701 | 0.47 | 0.479 | 0.374 | 0.512 | 0.462 | 0.381
8 | LRFEVYGGENE [STOX1_Y610_YF] | 0.536 | 0.842 | 0.723 | 1.29 | 0.925 | 1.15 | 0.774 | 0.539 | 0.621 | 1.55 | 0.855 | 0.483 | 0.454 | 0.5 | 0.56 | 0.5
9 | LRWREYQRQDF [PRKRIP1_Y90_R87W_YF] | 1.34 | 1.82 | 2.02 | 6.28 | 3.64 | 4.24 | 2.67 | 1.01 | 2.28 | 4.93 | 2.29 | 1.67 | 1.69 | 2.04 | 1.91 | 2.67
10 | LRYDVYGGENE [STOX1_Y610_E608D] | 0.875 | 0.675 | 0.925 | 2.78 | 2.15 | 2.74 | 1.29 | 1.48 | 1.09 | 3.02 | 1.57 | 1.03 | 1.18 | 1.41 | 1.82 | 1.94
11 | LSDGPYSSPFE [EPOR_Y485_N487S_YF] | 1.02 | 0.473 | 0.507 | 0.765 | 0.468 | 1.37 | 0.715 | 0.786 | 0.781 | 0.84 | 0.53 | 0.465 | 0.527 | 0.684 | 0.631 | 0.698
12 | LSDVIYVILRK [PMP22_Y153_G150D] | 0.58 | 1.31 | 1.17 | 1.23 | 0.617 | 1.27 | 0.684 | 0.414 | 0.456 | 1.28 | 0.55 | 0.398 | 0.278 | 0.391 | 0.57 | 0.38
13 | LSGFGYRLSDQ [PDCD6_Y124] | 0.545 | 1.65 | 0.869 | 1.09 | 0.787 | 1.02 | 0.76 | 0.731 | 0.787 | 0.977 | 0.502 | 0.449 | 0.474 | 0.444 | 0.64 | 0.558
14 | LSGVIYVILGK [PMP22_Y153_R157G] | 0.653 | 0.801 | 0.746 | 2.72 | 1.87 | 1.73 | 0.977 | 0.828 | 0.867 | 2.88 | 0.588 | 0.754 | 0.771 | 0.885 | 0.93 | 0.796
15 | LSIDRYHAIVF [NPSR1_Y147_YF] | 1.44 | 0.691 | 0.934 | 2.75 | 0.941 | 1.56 | 1.44 | 0.833 | 1.22 | 1.3 | 1.04 | 0.444 | 1.81 | 0.861 | 0.753 | 0.976
16 | LSQAKYQIRYR [CRLF1_Y272_F268S] | 0.368 | 0.558 | 1.29 | 0.711 | 0.592 | 0.617 | 0.603 | 0.776 | 0.638 | 0.768 | 0.764 | 0.467 | 0.479 | 0.667 | 0.506 | 0.387
17 | LSQDVYEEDSY [RET_Y900_R897Q] | 0.633 | 0.555 | 1.1 | 1.76 | 1.13 | 1.53 | 1.04 | 0.782 | 0.695 | 1.71 | 1.19 | 0.835 | 0.584 | 0.497 | 0.966 | 0.856
18 | LSSISYVGCSL [ADGRD1_Y571] | 0.567 | 1.1 | 1.13 | 0.871 | 0.79 | 1.01 | 0.838 | 0.681 | 0.719 | 1.01 | 1.11 | 0.445 | 0.541 | 0.747 | 0.76 | 0.605
19 | LVKDGYQMAQP [CSF1R_Y873] | 0.634 | 1.01 | 0.874 | 0.512 | 0.691 | 0.609 | 0.527 | 0.357 | 0.45 | 0.723 | 0.392 | 0.462 | 0.32 | 0.499 | 0.39 | 0.396
20 | LYDPDYMKVIL [CYP4A22_Y104] | 0.504 | 0.73 | 0.693 | 2.27 | 1.36 | 1.96 | 1.07 | 0.72 | 1.54 | 1.54 | 2.61 | 1.48 | 1.51 | 0.787 | 2.9 | 0.988
21 | LYSDHYSPSGR [TMPRSS12_Y23] | 0.473 | 0.544 | 1.1 | 1.41 | 1.54 | 1.27 | 0.958 | 1.01 | 1.14 | 1.03 | 2.91 | 16.8 | 28.8 | 2.01 | 4.19 | 2.15
22 | MAALSYVSEIG [BPIFB2_Y36_K31M] | 0.478 | 0.857 | 0.819 | 0.804 | 0.615 | 0.642 | 0.584 | 0.432 | 0.447 | 0.733 | 0.521 | 0.394 | 0.371 | 0.4 | 0.397 | 0.431
23 | MALDIYRASFF [ALK_Y1278_R1275L_YF] | 0.518 | 0.768 | 0.803 | 0.715 | 4.88 | 0.936 | 0.767 | 1.06 | 0.558 | 0.953 | 0.584 | 0.599 | 0.776 | 1.22 | 0.599 | 1.05
24 | MKALGYFAVVT [OPA1_Y498] | 0.488 | 0.752 | 0.769 | 1.62 | 0.892 | 1.25 | 0.996 | 0.63 | 0.579 | 1.53 | 0.773 | 0.655 | 0.403 | 0.825 | 0.852 | 0.436
25 | MPPHIYAITDT [MYH9_Y151] | 7.82 | 0.664 | 0.965 | 0.68 | 0.922 | 0.709 | 0.514 | 1.73 | 0.59 | 0.936 | 0.514 | 0.679 | 4.75 | 1.22 | 1.4 | 2.26
26 | MPQNEYIELHC [NSA2_Y6_R11C] | 0.683 | 0.782 | 1.06 | 0.939 | 0.658 | 1.39 | 2.58 | 0.615 | 3.95 | 1.2 | 0.862 | 0.557 | 0.478 | 0.626 | 1.2 | 0.625
27 | MRALIYNSSTA [PLEKHA7_Y243] | 0.402 | 0.486 | 0.794 | 0.8 | 0.741 | 0.834 | 0.493 | 0.622 | 0.448 | 0.772 | 0.453 | 0.424 | 0.465 | 0.647 | 0.507 | 0.724
28 | MRTMGYMPREM [CABP5_Y62_T65R] | 0.48 | 0.576 | 0.785 | 0.606 | 0.507 | 0.494 | 0.508 | 0.438 | 0.397 | 0.594 | 0.374 | 0.411 | 0.435 | 0.405 | 0.369 | 0.356
29 | MSDVPYVMNRG [ACAT1_Y161_N158D] | 0.452 | 0.617 | 1.11 | 0.652 | 0.549 | 0.669 | 0.501 | 0.316 | 0.403 | 0.68 | 0.452 | 0.42 | 0.348 | 0.358 | 0.4 | 0.439
